Biological target: SARS-CoV-2活病毒的刺突蛋白 (SARS-CoV-2) (UniProt P0DTC2)
Test: cell-based or functional assay

## CB6 (antibody)
  活病毒中和 ND50 (CPE抑制, Vero E6细胞): 0.256 µg/mL

From patent CN116178530A
